{"source": "patent US20040058394A1", "about": "(Biogen, published 2004)"}
{"target": "T1, lymphotoxin beta receptor (LT-β-R) (human, UniProt P36941 31-435)", "T1 construct": "whole, on cells; also called LT-β receptor", "T1 sequence (P36941 31-435)": "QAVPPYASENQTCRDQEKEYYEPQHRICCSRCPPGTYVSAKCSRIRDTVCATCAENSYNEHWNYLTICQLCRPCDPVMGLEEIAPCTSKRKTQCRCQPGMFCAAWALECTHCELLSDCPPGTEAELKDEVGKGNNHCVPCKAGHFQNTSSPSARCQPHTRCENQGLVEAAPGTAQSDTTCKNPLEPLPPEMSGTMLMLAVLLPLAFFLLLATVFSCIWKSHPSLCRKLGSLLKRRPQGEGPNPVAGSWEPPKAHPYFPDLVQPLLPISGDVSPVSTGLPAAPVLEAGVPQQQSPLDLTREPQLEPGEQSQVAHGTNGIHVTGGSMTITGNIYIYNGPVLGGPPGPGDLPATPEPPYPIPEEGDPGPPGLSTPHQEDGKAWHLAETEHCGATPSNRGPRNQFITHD", "assay": "FACS titration on HT-29 cells, 4°C, non-specific binding subtracted, four parameter fit (functional affinity)", "method": "HuCBE11 #4 anti-LTβR antibody and humanized anti-CD40L as a negative control were diluted in PBS and a 12 point serial 1:4 dilution was made to a final concentration range of 2.37 pM-10 μM. 100 μL cell suspension and 100 μL antibody dilution were added together to each well of a 96 well V-bottom microtiter plate. The antibody and the cells were incubated at 4° C. for 2 hours. The plate was centrifuiged at 1000 rpm (110×g) for 10 minutes at 4° C. The supernatant was discarded and the cell pellet was washed with cold PBS six times.\nGoat-anti human IgG-phycoerythrin conjugate (Jackson Immunoresearch) was diluted 1:100 in PBS and 200 μL was added to each well. The cells were incubated with this secondary antibody for one hour at 4° C., centrifuged as described above, and washed once in cold PBS. The cells were then transferred to polystyrene test tubes. Fluorescence intensity was measured on a FACS Calibur instrument (Beckton Dickinson).\nThese specific fluorescence intensity values were then plotted against huCBE11 #4 concentrations on a log scale. The resulting curve is bell shaped and symmetrical, and reflects self-inhibition of the antibody binding at high concentrations. The left half of this curve was fit to a four parameter equation to find the functional affinity of the antibody. The resulting curve fit gives an EC₅₀ value of 60 pM for the huCBE11 #4 binding to HT-29 cells.", "units": {"EC50": "nM"}}
{"binder": "huCBE11 #4 (VL#3 with VH#4) (antibody, human IgG1, V domains shown, Full mature chains with human IgG1 and kappa constant domains; also called hCBE11; pAND076/pAND090) VH: EVQLVESGGGLVKPGGSLRLSCAASGFTFSDYYMYWFRQAPGKGLEWVATISDGGSYTYYPDSVKGRFTISRDNAKNSLYLQMSSLRAEDTAVYYCAREENGNFYYFDYWGQGTTVTVSS VL: DIQMTQSPSSLSASVGDRVTITCKAGQDIKSYLSWYQQKPGKAPKLLIYYATRLADGVPSRFSGSGSGTDYTLTISSLQPEDFATYYCLQHGESPWTFGGGTKLEIKR", "EC50": 0.06}
{"target": "T1, lymphotoxin beta receptor (LT-β-R)", "assay": "FACS staining of HT-29 cells with conditioned medium, PE anti-human IgG", "method": "Expression vectors were co-transfected into 293-EBNA cells and transfected cells were tested for antibody secretion and specificity (empty vector-transfected cells served as negative control). […] To examine the individual contributions of each of these changes, new heavy chain expression vectors were constructed. Plasmid pAND089, the F37V variant of VH#2, was made by subcloning the 311 bp NotI-PstI fragment from pAND075, the 126 bp PstI-HindIII fragment from pAND071, and the 1.21 kb HindIII-NotI fragment from the plasmid pEAG964 into the NotI site of the pCEP4 EBV expression vector-derived plasmid pCH269. Plasmid pAND090, the V93A variant of VH#2, was made by subcloning the 311 bp NotI-PstI fragment from pAND071, the 126 bp PstI-HindIII fragment from pAND075, and the 1.21 kb HindIII-NotI fragment from the plasmid pEAG964 into the NotI site of the pCEP4 EBV expression vector-derived plasmid pCH269. These H2/H3 chimeric heavy chains were co-transfected into 293-EBNA cells with VL#2 or VL#3. […] The pAND076 and pAND090 pairing was designated huCBE11 #4 (Table 1 supra).\nConditioned medium from transiently transfected cells was used to stain HT-29 cells by incubating for 30 min on ice, washing cells twice with FACS buffer (PBS with 5% FBS and 0.05% sodium azide), staining with PE-conjugated anti-human IgG (H+L), Jackson ImmunoResearch Laboratories, Inc., for 30 min on ice in FACS buffer, washing cells twice with FACS buffer, and resuspending in FACS buffer for analysis."}
{"binder": "L2/V93A H2 (VL#2 with the V93A variant of VH#2) (antibody, V domains shown, Human IgG1 / kappa constant regions; also called pAND072/pAND090) VH: EVQLVESGGGLVKPGGSLRLSCAASGFTFSDYYMYWFRQAPGKGLEWVATISDGGSYTYYPDSVKGRFTISRDNAKNSLYLQMSSLRAEDTAVYYCAREENGNFYYFDYWGQGTTVTVSS VL: DIQMTQSPSSLSASVGDRVTITCKAGQDIKSYLSWYQQKPWKAPKILIYYATRLADGVPSRFSGSGSGTDYTLTISSLQPEDFATYYCLQHGESPWTFGGGTKLEIK", "Relative MFI": "0.75 MFI normalized to chCBE11"}
{"binder": "chimeric CBE11 (chCBE11) (antibody, V domains shown, the latter is followed; also called pEAG982/pEAG983) VH: EVQLVESGGGLVKPGGSLKLSCAASGFTFSDYYMYWFRQTPEKRLEWVATISDGGSYTYYPDSVKGRFTISRDNAKNNLYLQMSSLKSEDTAMYYCVREENGNFYYFDYWGQGTTVTVSS VL: DIKMTQSPSSMYASLGERVTITCKAGQDIKSYLSWYQQKPWKSPKILIYYATRLADGVPSRFSGSGSGQDYSLTISSLESDDTATYYCLQHGESPWTFGGGTKLEIK", "Relative MFI": "1 MFI normalized to chCBE11"}
{"binder": "huCBE11 #4 (VL#3 with VH#4) (antibody, human IgG1, V domains shown, Full mature chains with human IgG1 and kappa constant domains; also called hCBE11; pAND076/pAND090) VH: EVQLVESGGGLVKPGGSLRLSCAASGFTFSDYYMYWFRQAPGKGLEWVATISDGGSYTYYPDSVKGRFTISRDNAKNSLYLQMSSLRAEDTAVYYCAREENGNFYYFDYWGQGTTVTVSS VL: DIQMTQSPSSLSASVGDRVTITCKAGQDIKSYLSWYQQKPGKAPKLLIYYATRLADGVPSRFSGSGSGTDYTLTISSLQPEDFATYYCLQHGESPWTFGGGTKLEIKR", "Relative MFI": "1 MFI normalized to chCBE11"}
{"binder": "huCBE11 #2 (VL#2 with VH#2) (antibody, human IgG1, V domains shown, also called huCBE#2; pAND072/pAND073) VH: EVQLVESGGGLVKPGGSLRLSCAASGFTFSDYYMYWFRQAPGKGLEWVATISDGGSYTYYPDSVKGRFTISRDNAKNSLYLQMSSLRAEDTAVYYCVREENGNFYYFDYWGQGTTVTVSS VL: DIQMTQSPSSLSASVGDRVTITCKAGQDIKSYLSWYQQKPWKAPKILIYYATRLADGVPSRFSGSGSGTDYTLTISSLQPEDFATYYCLQHGESPWTFGGGTKLEIK", "Relative MFI": "1 MFI normalized to chCBE11"}
{"binder": "huCBE11 #1 (VL#1 with VH#1) (antibody, human IgG1, V domains shown, also called pAND068/pAND069) VH: EVQLVESGGGLVKPGGSLRLSCAASGFTFSDYYMYWFRQTPGKGLEWVATISDGGSYTYYPDSVKGRFTISRDNAKNSLYLQMSSLRAEDTAMYYCVREENGNFYYFDYWGQGTTVTVSS VL: DIKMTQSPSSLSASVGDRVTITCKAGQDIKSYLSWYQQKPWKAPKILIYYATRLADGVPSRFSGSGSGQDYTLTISSLQPEDFATYYCLQHGESPWTFGGGTKLEIK", "Relative MFI": "1 MFI normalized to chCBE11"}
{"binder": "L3/H2 (VL#3 with VH#2) (antibody, human IgG1, V domains shown, Mix and match co-transfection; Human IgG1 / kappa constant regions; also called pAND076/pAND073) VH: EVQLVESGGGLVKPGGSLRLSCAASGFTFSDYYMYWFRQAPGKGLEWVATISDGGSYTYYPDSVKGRFTISRDNAKNSLYLQMSSLRAEDTAVYYCVREENGNFYYFDYWGQGTTVTVSS VL: DIQMTQSPSSLSASVGDRVTITCKAGQDIKSYLSWYQQKPGKAPKLLIYYATRLADGVPSRFSGSGSGTDYTLTISSLQPEDFATYYCLQHGESPWTFGGGTKLEIK", "Relative MFI": "1 MFI normalized to chCBE11"}
{"binder": "huCBE11 #3 (VL#3 with VH#3) (antibody, human IgG1, V domains shown, also called pAND076/pAND077) VH: EVQLVESGGGLVKPGGSLRLSCAASGFTFSDYYMYWVRQAPGKGLEWVATISDGGSYTYYPDSVKGRFTISRDNAKNSLYLQMSSLRAEDTAVYYCAREENGNFYYFDYWGQGTTVTVSS VL: DIQMTQSPSSLSASVGDRVTITCKAGQDIKSYLSWYQQKPGKAPKLLIYYATRLADGVPSRFSGSGSGTDYTLTISSLQPEDFATYYCLQHGESPWTFGGGTKLEIK", "Relative MFI": "0.62 MFI normalized to chCBE11"}
{"binder": "L2/H3 (VL#2 with VH#3) (antibody, human IgG1, V domains shown, Mix and match co-transfection; Human IgG1 / kappa constant regions; also called pAND072/pAND077) VH: EVQLVESGGGLVKPGGSLRLSCAASGFTFSDYYMYWVRQAPGKGLEWVATISDGGSYTYYPDSVKGRFTISRDNAKNSLYLQMSSLRAEDTAVYYCAREENGNFYYFDYWGQGTTVTVSS VL: DIQMTQSPSSLSASVGDRVTITCKAGQDIKSYLSWYQQKPWKAPKILIYYATRLADGVPSRFSGSGSGTDYTLTISSLQPEDFATYYCLQHGESPWTFGGGTKLEIK", "Relative MFI": "0.42 MFI normalized to chCBE11"}
